Biological target: triplex subunit VP23 (HSV-1) (human herpes simplex virus type 1 (HSV-1), strain KOS) (UniProt P10202)
Test: cryo-EM structure

Q: With “triplex subunit VP23 (HSV-1) (from UniProt P10202 1-318) (natural protein)” as the substance, how does the stoichiometry N read?
A: Its stoichiometry N is 2.

Source: article PMC4899274
